Measurements reported in the supplement of paper PMC9170038.

System: MS2 coat protein
Experiment: apparent KD of MS2 coat protein; higher = weaker reporter binding
Conditions: Eterna round: R107
How it was run: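 Apparent KD stands for the median, per design, of fits to normalised cluster binding curves. The curves came from titrating on-chip-transcribed RNA switches on Illumina sequencing clusters with SNAP-549-labelled MS2 coat protein, twofold from 0.7 or 1.5 nM to 3 µM. Buffer was 100 mM Tris-HCl pH 7.5, 80 mM KCl, 4 mM MgCl2, without or with constant ligand.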

[1] = input ligand: theophylline 20 uM
[2] = input ligand: tryptophan 2.4 mM
[3] = input ligand: theophylline 2 mM

Sequence | apparent KD of MS2 coat protein (input ligand: arginine 13.2 mM) | apparent KD of MS2 coat protein [1] | apparent KD of MS2 coat protein [2] | apparent KD of MS2 coat protein [3] | apparent KD of MS2 coat protein (input ligand: none)
GUAUGGAAACAUACUAGGGUAUCAUGAGAUACCAGUACAGAAAUGUACCCUUGGCAGCUCAAGCAUACAUGAGGAUCACCCAUGU [Ex Theophylline A 7] | 15 nM | 22.7 nM | 15.8 nM | – | –
GUAUGGAAACAUACUAGGGUAUCGUGAGAUACCAGUACAGAAAUGUACCCUUGGCAGCUCGCGCAUACAUGAGGAUCACCCAUGU [Ex Theophylline A 9] | 19.4 nM | 26.9 nM | 19.7 nM | – | –
GUUGCACAUGAGGAUCACCCAUGUUUGGAUACCAGUCUCUGUAAUGACCCUUGGCAGCCACCAUAGACGCUUGAGUAGAGCCUGA [theeternabot_sameState_MS2_Theo_A_21] | 14.2 nM | 19.4 nM | 15.5 nM | – | –
GUUUACAUGAGGAUCACCCAUGUCGCCGGCCGAGGACCGGUACGGCCGCCACUCGUCCUAAUGGCACUUGACUUCCCUAUUAAGU [theeternabot_sameState_MS2_Trp_A_33] | 20.4 nM | 31.3 nM | – | 25.5 nM | –
UAAACUACACAUGAGGAUCACCCAUGUGGCCGAGGACCGGUACGGCCGCCACUCGUGUGUUAAUAAAAGAACUGCAAGGUUCUUC [Uslausce] | 76.1 nM | 325 nM | – | 748 nM | –
UAAAUAAUCUGGGUGUAGGUAAUAACAGAUACCAGCCAGAUAACUGGCCCUUGGCAGCUGAAAACAUGAGGAUCACCCAUGUAAA [Mat - Same State Theophlline A - Mod of Eli - D19] | 58.3 nM | 129 nM | 57.4 nM | 84.6 nM | 80.6 nM
UAACAUGAGGAUCACCCAUGUUUAGAUGAACGAGGACCGGUACGGCCGCCACUCGAUAAGUGGAAAGAGCGAGGGAUUGUAUGCU [Same State Trp A GF4] | 12.2 nM | 16.2 nM | 11.9 nM | 10.3 nM | 12.4 nM
UAACAUGAGGAUCACCCAUGUUUGGAGAAACGAGGACCGGUACGGCCGCCACUCGAGGAGUGGAUGAGAAGUGGGAUAGAGUGAU [Same State Trp A GF6] | 19.2 nM | 19.6 nM | 15.1 nM | 17.5 nM | 19.6 nM
UACAUAUGCCGAAGGAGCGCGAGAUGCAAAGCAUCAUUCCUCACAUGAGGAUCACCCAUGUCGCAGGUAGGUCGCGGCAUAUGUU [ArgBX] | 46.7 nM | 45.1 nM | 32.4 nM | 40.3 nM | 32.5 nM
UACCGAUACGGAAGGAGCGUAGAAGUAGUACAUGAGGAUCACCCAUGUAUGGGUAAUUUCGUACAGGUAGGUCGCCGUAUCGGUA [SSAB NP+V+V2 #23] | 23.3 nM | 38.3 nM | 35.5 nM | 40 nM | 31.8 nM
UACCGAUGAAGAAGGAGCGUAUGCUUAUAUGAUGGUAACAUGAGGAUCACCCAUGUCAGUAUACAGGUAGGUCGCUUCAUCGGUA [EAB NP+V+V2 #22] | 45.3 nM | 68.6 nM | 45.8 nM | 73.3 nM | 59.1 nM
UACGCUAGGGCGGCCGCCACUCGGACAUGAGGAUCACCCAUGUCGAUUAAUUGAAGGACAUGAAUGAGGACCGGGCUAAGCUAGG [Same State - Tryptophan B / B] | 20.8 nM | 38.9 nM | 23.4 nM | 27.1 nM | 29.4 nM
UACUUGCUGACGGCCGCCACUAGAACAUGAGGAUCACCCAUGUAGGUCCUAGAUUCCUCAUGAACUAGGACCGGGUCAGCAAGAU [(Trp1)-(Ms2)-(T)'-(M)'-(Trp2)_Design15] | 53.7 nM | 201 nM | – | 221 nM | –
UACUUGCUGACGGCCGCCACUAGAACAUGAGGAUCACCCAUGUAUUCUAGUCGUCAUGGGUGGACUAGGACCGGGUCAGCAAGAU [(Trp1)-(Ms2)-(T)'-(M)'-(Trp2)_Design8] | 30.7 nM | 41.8 nM | 192 nM | 34.7 nM | 33.8 nM
UAUAACAUGAGGAUCACCCAUGUAAGUGAUACCAGAUAAAUAAUAGUCCCUUGGCAGCAUAUUGGGAAAAUGUAUAAUAUAUAUU [Same State - Theophylline A (Freestyle 1)] | 49.9 nM | 72.1 nM | 49.4 nM | – | –
UAUAGUGUGAUGGAUACCAGCAGAGAAAACGUUUAUCCUAACAUGAGGAUCACCCAUGUAUGCCCUUGGCAGCUGUUGUGUUAUA [8.O] | 28.9 nM | 42.5 nM | 30.3 nM | – | –
UAUAUAUAUCACUAACUGUUCUUGAGGUCUCGAGGACCGGUACGGCCGCCACUCGUGCCGCCUCACAUGAGGAUCACCCAUGUCC [XTryp A #2] | 55.3 nM | 79.4 nM | – | 81.6 nM | –
UAUAUGGUGAUGGAUACCAGCAGAGAAAACGUUUAUCCUAACAUGAGGAUCACCCAUGUAUGCCCUUGGCAGCUGUUGUUAUAUA [8.M] | 26.7 nM | 42.3 nM | 35.2 nM | – | –
UAUCGCGCGGCGGCCGCCACUAAUGGCAGAUCUGUCGACUAACAUGAGGAUCACCCAUGUCUAACUAGGACCGGGCCCAAGUUGU [theeternabot_sameState_MS2_Trp_B_7] | 30.5 nM | 66.2 nM | – | 59 nM | –

Sequence | apparent KD of MS2 coat protein (input ligand: arginine 13.2 mM) | apparent KD of MS2 coat protein [1] | apparent KD of MS2 coat protein [2] | apparent KD of MS2 coat protein [3] | apparent KD of MS2 coat protein (input ligand: none)
UCAUAAGUACCGGUCCUCAGAUCCUCAUGACGAGGACCGGUACGGCCGCCACUCGAAACAUGAGGAUCACCCAUGUAAUAAUACU [Brourdmod15] | 22.5 nM | 37.9 nM | – | 31.9 nM | –
UCAUGCAGGUCGGCCGCCACUACACACAUGAGGAUCACCCAUGUAGUUACUGGGUGAAGUGGCAGUAGGACCGGGACCUGCAUAU [Brourdmod08] | 155 nM | 664 nM | 559 nM | 696 nM | 423 nM
UCGACGAUGACCAAAGGUCAGGAGUACGUACGAGGACCGGUACGGCCGCCACUCGAGGAGUGGGACAUGAGGAUCACCCAUGUGG [#20 Exclusion Tryptophan A] | 16.6 nM | 51.4 nM | 37.4 nM | 43.7 nM | 38.2 nM
UCGCUCUGGGUGGGAUCCGGAGAUGUGGAAGGAGCGCUGGAAACAGCAGGUAGGUCGCCAACGGACAUGAGGAUCACCCAUGUAC [Same State - Arginine A (Freestyle 18)] | 64.9 nM | 37.4 nM | 59 nM | 37.7 nM | 26.5 nM
UCGGGCAGAGCGGCCGCCACUGUUUGGCGUGCGGAUGAAGGAACAUGAGGAUCACCCAUGUAGAUUAGGACCGGGCUUGCGGAGA [ddrmullin] | 8.61 nM | 18.1 nM | 15.9 nM | 15 nM | 13.8 nM
UCGGUUUUCUACAUGAGGAUCACCCAUGUCCGAGGACCGGUACGGCCGCCACUCGCAAUCAAACAGACGUGGGCCAAAUUUGCGU [Isinso] | 11.8 nM | 14.8 nM | – | 11.6 nM | –
UCGUAGCUAGGAAGGAGCGCAUACUUCACAUGAGGAUCACCCAUGUCGAGACGUGAGUCAGUGCAGGUAGGUCGCCUAGCUAUGA [Same State - Arginine B (Freestyle 26)] | 18.2 nM | 22.3 nM | 19.3 nM | 21.5 nM | 17.6 nM
UCGUUUGAGGCGGCCGCCACUGGUCUCAUGGUCAACAUGAGGAUCACCCAUGUAUCUUUGCCAAGCAGGACCGGGCCUCGAGCGA [#20 Exclusion Tryptophan B] | 28.1 nM | 41.4 nM | 14.8 nM | 29.1 nM | 23.6 nM
UCGUUUUAGUCGGCCGCCACUGGUCUCAUGUUCAACAUGAGGAUCACCCAUGUAUCUUAUUUUAACAGGACCGGGACGUAAUAGA [#16 Exclusion Tryptophan B] | 90.8 nM | 88.2 nM | – | 140 nM | –
UCUACAUGAGGAUCACCCAUGUGCCAUGAUACCAGACAUGAAAAUGUCCCUUGGCAGCAUGGGUAGCGCAUCCGAAAGGAUGCGU [#06 SameState-TheophyllineA] | 42.4 nM | 155 nM | 33.4 nM | – | –
UCUGGGUGCGCAAGGACCUGGAGUUGCGAUACCAGCACGGUAACGUGCCCUUGGCAGCGCACAUGAGGAUCACCCAUGUGGUGUU [#1 Exclusion - Theophylline A Attempt #18 (HarryS)] | 65.6 nM | 247 nM | 204 nM | – | –
UCUUACUAUAGUGAUACCAGACGUACAUGAGGAUCACCCAUGUUACAUUCUUGGUUAAAAGUCCCUUGGCAGCACGAUUUGUUCG [JR_Nu_ExcTheophyB_Sub026] | 9.88 nM | 10.8 nM | 9.76 nM | – | –
UGAACAUGAGGAUCACCCAUGUAGUCAGAUACCAGACACUGCAUGGUCCCUUGGCAGCUGAAGAGCGUUUGCCAAAUAACGUUCA [Theo A SS t4] | 52 nM | 223 nM | 258 nM | – | –
UGACAUGAGGAUCACCCAUGUGUAAGAGAAGGAGCGGCCGGAAGGCCAGGUAGGUCGCUCAGGUAGCGUGAGGAUCACCCGUGUG [big_hook] | 81.8 nM | 130 nM | 35.7 nM | 97.5 nM | 161 nM
UGACAUUGCUCAGAUACCAGACAUGAGGAUCACCCAUGUACCAAGGUACCCGAAAGGAAUGUCCCUUGGCAGCUGAGCAAUGUCU [TheoBX 3 #MS2Left #Theo2 #StaticStem] | 11.7 nM | 11.9 nM | 11 nM | – | –
UGAUCCUACAGAGAUACCAGUGCCGCUGAGUGACCAGACACAUGAGGAUCACCCAUGUAACACCCUUGGCAGCUCAACUAGAGGG [Same State Theophylline B GF19] | 12.8 nM | 18.7 nM | 22 nM | 98.7 nM | 18.4 nM
UGAUGGAACGGAAGGAGCGUGUAAGAACAAGAACAUGAGGAUCACCCAUGUAUUAAUUUAACACAGGUAGGUCGCCGAGUUAUUG [11.F] | 9.42 nM | 42.1 nM | 15.9 nM | 28.6 nM | 16.9 nM
UGAUGGUUCGGAAGGAGCGUGUAAGAACAAGAACAUGAGGAUCACCCAUGUAUUAAUUUAACACAGGUAGGUCGCCGAGUUAUUG [11.I] | 12.6 nM | 22.1 nM | 17 nM | 28.9 nM | 15.9 nM
UGGCGAGAAGGAAGGAGCGUCAGCUGAGUCACAUGAGGAUCACCCAUGUCGCACAUAGUGUGACAGGUAGGUCGCCUUCUGCCCU [Beinmain] | 84.9 nM | 152 nM | 156 nM | 239 nM | 134 nM
